Columns and labels:
[1] = Aging of glucagon in glycine buffer at 37° C, analysed by LCMS; type: physicochemical
[2] = cited from earlier work
animals = settings: cited from earlier work

glucagon
width of main LCMS peak, glucagon aged at pH 10 ([1]; 1 mg/ml in glycine buffer pH 10, 7 days at 37° C, reverse-phase LCMS): 3 min
deamidation events after aging, pH 10 vs pH 9 ([1]; aged 7 days at 37° C, least-squares fitting of isotopic distribution of the m/z spectrum): more deamidation events than pH 9
width of main LCMS peak, fresh glucagon ([1]; unaged glucagon, reverse-phase LCMS): 1 min
aggregation at alkaline pH vs acid pH [2]: much less prone to aggregation than glucagon prepared at acid pH
bioactivity of fibrillated glucagon given to animals (animals): retains much of its bioactivity

Source: publication PMC3947653 (Peptides, 2013)
